Data published in article PMC7239026, “PepO is a target of the two-component systems VicRK and CovR required for systemic virulence of Streptococcus mutans” (Virulence, 2020).

How the values were obtained:
[1] = molecular target: T1, human C4b-binding protein (C4BP) (human, UniProt P04003 49-597; P20851 18-252); test: ELISA; human glycoproteins coated on 96-well plates (5 ug/mL in 75 mM sodium carbonate buffer pH 9.6, 18 h at 4°C); blocked with 3% fish gelatin; rPepO (10 to 50 ug/mL) or rCnmA (0.125 to 2 ug/mL) in 50 mM HEPES pH 7.4, 150 mM NaCl, 2 mM CaCl2, 50 ug/mL BSA, 2 h at 37°C; bound protein detected with rabbit antiserum and peroxidase conjugate, A450 nm; wells with 1% BSA as control; settings: both partners purified
T1 construct: Named only as a whole ('a multimeric glycoprotein'); source: bought: Athens Research & Technology
T1 sequence (looked up) 1: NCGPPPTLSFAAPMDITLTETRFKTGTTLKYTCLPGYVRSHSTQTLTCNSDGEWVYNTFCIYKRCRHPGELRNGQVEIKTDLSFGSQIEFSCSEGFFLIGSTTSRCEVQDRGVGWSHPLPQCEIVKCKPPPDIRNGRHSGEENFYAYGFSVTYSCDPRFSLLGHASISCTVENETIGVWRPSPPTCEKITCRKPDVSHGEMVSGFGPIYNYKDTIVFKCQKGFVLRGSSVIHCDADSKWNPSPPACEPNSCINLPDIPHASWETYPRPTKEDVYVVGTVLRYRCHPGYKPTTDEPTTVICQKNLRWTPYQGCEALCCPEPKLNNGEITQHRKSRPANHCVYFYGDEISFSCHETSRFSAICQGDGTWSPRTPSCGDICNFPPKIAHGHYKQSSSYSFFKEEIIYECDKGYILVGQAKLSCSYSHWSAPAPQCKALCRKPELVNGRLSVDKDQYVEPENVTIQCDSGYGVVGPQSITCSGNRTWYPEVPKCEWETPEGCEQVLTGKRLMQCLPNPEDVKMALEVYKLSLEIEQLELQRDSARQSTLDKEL
T1 sequence (looked up) 2: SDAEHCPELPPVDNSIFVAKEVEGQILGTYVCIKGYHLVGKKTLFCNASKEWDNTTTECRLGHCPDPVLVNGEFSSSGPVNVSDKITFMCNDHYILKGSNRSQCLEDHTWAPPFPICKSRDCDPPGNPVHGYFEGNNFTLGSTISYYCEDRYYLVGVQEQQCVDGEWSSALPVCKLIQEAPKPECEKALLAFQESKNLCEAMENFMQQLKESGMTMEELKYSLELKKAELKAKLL

[2] = molecular target: T2, human complement protein C1q (human, UniProt P02745 23-245; P02746 28-253; P02747 29-245); test: as above; settings: both partners purified
T2 construct: Complement C1q subcomponent subunit A, human; Complement C1q subcomponent subunit B, human; Complement C1q subcomponent subunit C, human; Named only as a whole; source: bought: Calbiochem
T2 sequence (P02745 23-245, chain 1 of 3): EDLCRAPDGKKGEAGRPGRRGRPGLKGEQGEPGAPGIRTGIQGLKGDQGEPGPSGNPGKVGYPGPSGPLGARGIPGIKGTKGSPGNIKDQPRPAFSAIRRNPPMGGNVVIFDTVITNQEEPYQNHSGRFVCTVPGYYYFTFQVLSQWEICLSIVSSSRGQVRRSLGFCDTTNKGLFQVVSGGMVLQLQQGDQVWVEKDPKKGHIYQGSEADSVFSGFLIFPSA
T2 sequence (P02746 28-253, chain 2 of 3): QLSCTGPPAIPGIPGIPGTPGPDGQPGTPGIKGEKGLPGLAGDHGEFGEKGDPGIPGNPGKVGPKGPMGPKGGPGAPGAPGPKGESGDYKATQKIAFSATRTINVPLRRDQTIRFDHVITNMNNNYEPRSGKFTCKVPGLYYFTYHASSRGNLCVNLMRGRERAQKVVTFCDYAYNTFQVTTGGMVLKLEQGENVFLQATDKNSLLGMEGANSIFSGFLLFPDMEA
T2 sequence (P02747 29-245, chain 3 of 3): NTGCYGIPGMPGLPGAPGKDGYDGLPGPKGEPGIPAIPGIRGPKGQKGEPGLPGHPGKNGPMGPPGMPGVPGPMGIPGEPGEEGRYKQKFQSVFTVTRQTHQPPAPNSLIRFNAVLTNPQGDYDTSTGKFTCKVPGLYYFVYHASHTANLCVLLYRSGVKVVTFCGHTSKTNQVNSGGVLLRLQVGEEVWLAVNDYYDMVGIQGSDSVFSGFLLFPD

B1: His-tagged PepO recombinant protein (rPepO), endopeptidase O of Streptococcus mutans (natural protein)
chain: MVRLQDDFYNAVNGQWEEAAVIPDDKPRTGGFSDLADDIEDLMLETTDKWLDGKDVPDDSILQNFVKFHRQVADYDAREETGVKPVLPLIEEYKSLTSFADFASNIATYEMAGKPNELPFGVAPDFMNAQMNVLWAEAPNLILPDTTYYAEGNDKGKELLAKWRTMQEELLPKFGFEEAEIKDLLDKVLTLDAKLAQYVLSSEESSEYVKLYHPYDWADFTKLTPELPLDAIFTQILGQKPDKVIVPEERFWTNFAAEFYSEKNWPFLKATLVLAAASSYNSYLTDDIRILSGSYNRALSGTPQAMGKKKAAFYLAQGPYNQALGLWYAGEKFSPEAKKDVEAKVATMIEVYKERLHKTDWLAQETRNKAITKLNVITPHIGYPEQLPKTYAQKIIDDNLSLVENAQNLAKISIAYNWSKWNQPVDRSEWHMPAHMVNAYYDPQQNQIVFPAAILQAPFYSLEQSSSANYGGIGAVIAHEISHAFDTNGASFDENGSLNNWWTDEDYAAFKKRTDRVVEQFEGLDSYGAKVNGQLTVSENVADLGGLACALEAAKREADFSVRDFFINFATIWRMKARDEYMQMLASIDVHAPAKWRTNVTITNFDEFHQEFAVKEGDGMWRDEDKRVIIW
notes: PepO (endopeptidase O) of Streptococcus mutans strain UA159; entire PepO coding region (1896 bp) amplified from UA159 genomic DNA and cloned into pET-16B; Vector pET-16B; also called full-length PepO; source: E. coli BL21, purified under native conditions (Ni-NTA), dialyzed in PBS
B1: binds [1]; binds [2].
